Tests used:
[1] = target: T1, Galectin-3 (Biolegend) (Mus musculus (Mouse), UniProt P16110 2-264); experiment: ELISA, plate coated with Galectin-3, Dectin-1 IgG Fc at 2.5 µg/ml (concentration from paragraph 191, not on the sheet), detection with anti-IgG-HRP [cont.) I]
T1 construct: The sentence reads 'recombinant mouse Galectin-9 ..., Galectin-3, or Galectin-4'; whether 'mouse' also applies to Galectin-3 is not clear
Experimental: (§1) To investigate if Galectin-9 can bind with Dectin-1, Protein G-magnet beads (2 ml; Dynabeads) were loaded with Dectin-1 IgG Fc (1 mg) or control IgG Fc before washing and blocking. Subsequently, beads were incubated with recombinant Galectin-9 ([…]; R&D Systems) for 30 min, washed, and stained with PE-conjugated anti-Galectin-9 (Biolegend, San Diego Calif.). Galectin-9 specific staining was determined by flow cytometry. To investigate the interaction between Galectin-9 and Dectin-1 by ELISA, plates (Maxisorp, Nunc, St. Louis, Mo.) were coated with recombinant mouse Galectin-9 ([…]; R&D Systems, Minneapolis, Minn.), Galectin-3, or Galectin-4 (both […]; Biolegend) for 16 hours at 4° C., blocked with 1% BSA/PBS for 1 hour, and incubated with increasing doses of Dectin-1 IgG Fc or control IgG Fc for 2 hours. The Galectin-bound Dectin-1 IgG Fc was detected with anti-IgG-HRP. […] Bead-bound precipitates were resuspended with loading buffer, resolved by SDS-PAGE under reduced conditions for western blotting using mAbs specific for Galectin-9. […] Dectin-1 signaling was measured by detection of secreted embryonic alkaline phosphatase. […] Syk phosphorylation was measured by flow cytometry at 3 hours.

[2] = target: T2, Galectin-4 (Biolegend) (Mus musculus (Mouse), UniProt Q8K419 1-326); experiment: ELISA, plate coated with Galectin-4, Dectin-1 IgG Fc at 2.5 µg/ml (concentration from paragraph 191, not on the sheet), detection with anti-IgG-HRP [cont.) I]
T2 construct: The sentence reads 'recombinant mouse Galectin-9 ..., Galectin-3, or Galectin-4'; whether 'mouse' also applies to Galectin-4 is not clear
T2 sequence: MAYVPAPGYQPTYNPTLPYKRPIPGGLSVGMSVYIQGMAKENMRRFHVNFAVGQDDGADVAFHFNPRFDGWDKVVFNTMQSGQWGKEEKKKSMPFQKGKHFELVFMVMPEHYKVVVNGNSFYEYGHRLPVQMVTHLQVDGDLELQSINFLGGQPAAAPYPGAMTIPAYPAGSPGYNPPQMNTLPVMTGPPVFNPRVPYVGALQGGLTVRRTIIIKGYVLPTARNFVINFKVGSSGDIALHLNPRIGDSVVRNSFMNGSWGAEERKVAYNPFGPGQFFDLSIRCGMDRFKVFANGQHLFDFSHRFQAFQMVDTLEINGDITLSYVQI
Experimental: as §1

T1 sequence (P16110 2-264 limits assumed): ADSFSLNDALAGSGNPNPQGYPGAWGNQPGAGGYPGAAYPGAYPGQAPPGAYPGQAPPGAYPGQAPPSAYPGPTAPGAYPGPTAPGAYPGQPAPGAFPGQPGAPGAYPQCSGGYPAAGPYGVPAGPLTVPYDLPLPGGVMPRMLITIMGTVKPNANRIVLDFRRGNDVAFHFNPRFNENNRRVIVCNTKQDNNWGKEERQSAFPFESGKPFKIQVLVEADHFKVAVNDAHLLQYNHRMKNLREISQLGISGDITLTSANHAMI

B1: human IgG Fc-conjugated Dectin-1 fusion protein (murine Dectin-1 IgG Fc; fc-mdec1a, InvivoGen) (Fc fusion, mouse, UniProt Q6QLQ4 69-244, looked up)
chain: EYGHNSGRNPEEKDNFLSRNKENHKPTESSLDEKVAPSKASQTTGGFSQPCLPNWIMHGKSCYLFSFSGNSWYGSKRHCSQLGAHLLKIDNSKEFEFIESQTSSHRINAFWIGLSRNQSEGPWFWEDGSAFFPNSFQVRNTAPQESLLHNCVWIHGSEVYNQICNTSSYSICEKEL
notes: Bought reagent (fc-mdec1a; InvivoGen); also called Dectin-1 Fc; not shown: human IgG Fc
[1]
  binding result: no binding (tested: 2.5 µg/ml)
[2]
  binding result: no binding (tested: 2.5 µg/ml)
